Measured values as given in article PMC5378873 (Oncogene, 2016).

Molecular target: FKBP12 (protein used for ITC) (human, UniProt P62942 1-108)
Experiment: ITC

Sequence of FKBP12 (protein used for ITC) (P62942 whole entry): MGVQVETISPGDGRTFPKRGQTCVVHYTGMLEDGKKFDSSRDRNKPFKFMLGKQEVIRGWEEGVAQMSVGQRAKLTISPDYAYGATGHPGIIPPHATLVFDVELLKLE

B1: MDM2 (425-491) RING domain (protein used for ITC) (domain or fragment, human, UniProt Q00987 425-491, looked up)
chain: SVESSLPLNAIEPCVICQGRPKNGCIVHGKTGHLMACFTCAKKLKKRNKPCPVCRQPIQMIVLTYFP
Kd: 1.94 µM
